Experimental data: PMC5355875, “Crystal structure of a raw-starch-degrading bacterial α-amylase belonging to subfamily 37 of the glycoside hydrolase family GH13” (Scientific Reports, 2017)

B1: AmyPΔSBD (uncultured bacterium) (protein)
chain: MCDSALTAQANDLRIYQVMVESFVNGDDAIGHGTGYGTSHHKGDLQGIIDSLDYIESLGMNAIWLTPIFDSIPVEGQDHWADRLDATGYFTSNYFAVDPRFGTMEQAKELVEKAHEKGLYVFFDGVFGHHKDNVVPSPEGRLPVGENNPVSYPESLAFYQEVATFWIEELKIDGWRLDQAYQVPTEAWTAIRASVDEASKSVTYVNSEGEAVNPLGYMVAEIWNNENYIKETGYGAEGEPALCSAFDFPVRYRVVETFAANENGIGNKGGKWLDEGMNLHRLYPSHAQPNLMLGNHDLVRFGDLLQRGNIASPEQAEYWERHKAALSFQAAYSGPITLYYGEEIGDELEGYAQKVEQDCAVQGLCDDHVARTSANIDGLTVNLNEKQRDLKQYVSQLMTLRAAHPALSRGERTNIVANETVYIDHKQADDDALIYMVSTTADQDTVELKASDIASDGQLVDLLTGKVHSAINGEYQISLAPFEAKFLLIETPSASG
notes: SBD-truncated catalytic domain, residues 1-496, N-terminal 6xHis (TEV site)
B2: AmyPΔSBD (uncultured bacterium; N148Y) (protein)
chain: MCDSALTAQANDLRIYQVMVESFVNGDDAIGHGTGYGTSHHKGDLQGIIDSLDYIESLGMNAIWLTPIFDSIPVEGQDHWADRLDATGYFTSNYFAVDPRFGTMEQAKELVEKAHEKGLYVFFDGVFGHHKDNVVPSPEGRLPVGENYPVSYPESLAFYQEVATFWIEELKIDGWRLDQAYQVPTEAWTAIRASVDEASKSVTYVNSEGEAVNPLGYMVAEIWNNENYIKETGYGAEGEPALCSAFDFPVRYRVVETFAANENGIGNKGGKWLDEGMNLHRLYPSHAQPNLMLGNHDLVRFGDLLQRGNIASPEQAEYWERHKAALSFQAAYSGPITLYYGEEIGDELEGYAQKVEQDCAVQGLCDDHVARTSANIDGLTVNLNEKQRDLKQYVSQLMTLRAAHPALSRGERTNIVANETVYIDHKQADDDALIYMVSTTADQDTVELKASDIASDGQLVDLLTGKVHSAINGEYQISLAPFEAKFLLIETPSASG
notes: as for B1
B3: AmyPΔSBD (uncultured bacterium; Y351A) (protein)
chain: MCDSALTAQANDLRIYQVMVESFVNGDDAIGHGTGYGTSHHKGDLQGIIDSLDYIESLGMNAIWLTPIFDSIPVEGQDHWADRLDATGYFTSNYFAVDPRFGTMEQAKELVEKAHEKGLYVFFDGVFGHHKDNVVPSPEGRLPVGENNPVSYPESLAFYQEVATFWIEELKIDGWRLDQAYQVPTEAWTAIRASVDEASKSVTYVNSEGEAVNPLGYMVAEIWNNENYIKETGYGAEGEPALCSAFDFPVRYRVVETFAANENGIGNKGGKWLDEGMNLHRLYPSHAQPNLMLGNHDLVRFGDLLQRGNIASPEQAEYWERHKAALSFQAAYSGPITLYYGEEIGDELEGAAQKVEQDCAVQGLCDDHVARTSANIDGLTVNLNEKQRDLKQYVSQLMTLRAAHPALSRGERTNIVANETVYIDHKQADDDALIYMVSTTADQDTVELKASDIASDGQLVDLLTGKVHSAINGEYQISLAPFEAKFLLIETPSASG
notes: as for B1

Experiments:
[1] = system: T1, OC[C@H]1O[C@@H]2O[C@H]3[C@H](O)[C@@H](O)[C@@H](O[C@H]4[C@H](O)[C@@H](O)[C@@H](O[C@H]5[C@H](O)[C@@H](O)[C@@H](O[C@H]6[C@H](O)[C@@H](O)[C@@H](O[C@H]7[C@H](O)[C@@H](O)[C@@H](O[C@H]8[C@H](O)[C@@H](O)[C@@H](O[C@H]9[C@H](O)[C@@H](O)[C@@H](O[C@H]1[C@H](O)[C@H]2O)O[C@@H]9CO)O[C@@H]8CO)O[C@@H]7CO)O[C@@H]6CO)O[C@@H]5CO)O[C@@H]4CO)O[C@@H]3CO; assay: reducing sugar assay (copper-bicinchoninate), Michaelis-Menten fit; type: biochemical, uncultured bacterium; details: 40 °C, pH 6.5, 20 mM HEPES, 150 mM NaCl, 10 mM CaCl2
T1 construct: SBD-truncated catalytic domain, residues 1-496, N-terminal 6xHis (TEV site)
From the text: (§1) reducing sugar assay (copper-bicinchoninate), Michaelis-Menten fit on AmyPΔSBD

[2] = target: T2, AmyP (uncultured bacterium, UniProt D9MZ14, E221Q); assay: X-ray crystal structure, […] Å; type: binding; details: co-crystallised with γ-CD, pH 6.0; active site, subsites -1, -2 and -3
T2 construct: gene Amy-1E; full-length residues 1-639 crystallised, 6xHis tag cut by TEV, E. coli BL21(DE3); only residues 1-496 (AmyPΔSBD) seen in crystals, SBD partly degraded

[3] = target: T3, AmyP (uncultured bacterium, UniProt D9MZ14); assay: X-ray crystal structure, […] Å; type: binding; details: co-crystallised with β-CD, pH 8.5; active site, subsites -2 and -3
T3 construct: gene Amy-1E; full-length residues 1-639 crystallised, 6xHis tag cut by TEV, E. coli BL21(DE3); only residues 1-496 (AmyPΔSBD) seen in crystals, SBD partly degraded

[4] = substrate: OC[C@H]1O[C@@H]2O[C@H]3[C@H](O)[C@@H](O)[C@@H](O[C@H]4[C@H](O)[C@@H](O)[C@@H](O[C@H]5[C@H](O)[C@@H](O)[C@@H](O[C@H]6[C@H](O)[C@@H](O)[C@@H](O[C@H]7[C@H](O)[C@@H](O)[C@@H](O[C@H]8[C@H](O)[C@@H](O)[C@@H](O[C@H]9[C@H](O)[C@@H](O)[C@@H](O[C@H]1[C@H](O)[C@H]2O)O[C@@H]9CO)O[C@@H]8CO)O[C@@H]7CO)O[C@@H]6CO)O[C@@H]5CO)O[C@@H]4CO)O[C@@H]3CO; assay: reducing sugar assay (copper-bicinchoninate), Michaelis-Menten fit; type: biochemical, uncultured bacterium; details: 40 °C, pH 6.5, 20 mM HEPES, 150 mM NaCl, 10 mM CaCl2
From the text: as §1

Row | Molecule | Km [4] [mM] | kcat [4] [s⁻¹] | kcat/Km [4] [M⁻¹ s⁻¹] | also measured
1 | AmyPΔSBD (uncultured bacterium; K131A) | – | – | – | Km [1]: 1.29 ± 0.13 mM; kcat [1]: 7.47 ± 0.004 s⁻¹; kcat/Km [1]: 5800 M⁻¹ s⁻¹
2 | OC[C@H]1O[C@H](O[C@H]2[C@H](O)[C@@H](O)[C@@H](O[C@H]3[C@H](O)[C@@H](O)C(O)O[C@@H]3CO)O[C@@H]2CO)[C@H](O)[C@@H](O)[C@@H]1O (some centres unmarked) [maltotriose] | – | – | – | X-ray crystal structure, 2.55 Å [2]: electron density representing a maltotriose molecule bound to the active site
3 | OC[C@H]1O[C@H](O[C@H]2[C@H](O)[C@@H](O)C(O)O[C@@H]2CO)[C@H](O)[C@@H](O)[C@@H]1O (some centres unmarked) [maltose] | – | – | – | X-ray crystal structure, 1.95 Å [3]: electron density representing a maltose molecule at subsites -2 and -3
4 | AmyPΔSBD (uncultured bacterium; N148A) | – | – | – | Km [1]: 0.20 ± 0.03 mM; kcat [1]: 22.59 ± 0.007 s⁻¹; kcat/Km [1]: 113000 M⁻¹ s⁻¹
5 | B1 | 0.12 ± 0.005 | 39.58 ± 0.004 | 323000 | –
6 | B2 | 0.10 ± 0.009 | 26.11 ± 0.01 | 274000 | –
7 | B3 | 2.11 ± 0.09 | 25.02 ± 0.006 | 11900 | –
